What was measured:
MCF7 cells = format: cell-based
RAJI cells = test: JNG (Jurkat NFAT-GFP) cells expressing SAR: GFP induction on co-culture with RAJI
L363 (BCMA+) cells = format: cell-based
[1] = test system: Raji cells expressing a membrane anchored scFv targeting Dsg3; test: JNG assay, co-culture with Raji cells expressing a membrane anchored scFv targeting Dsg3; format: cell-based; details: compared to parental Raji cells
Description: Cellular supernatant is collected and assayed for the induction of cytokines (e.g., IL2).
JNG (Jurkat cells expressing EGFP under an NFAT promoter) were infected with lentiviral vectors encoding different single chain and multi-chain SARs by spinfection in the presence of 8 µg/ml of Polybrene® (Sigma, Catalog no. H9268). The Jurkat-NFAT-GFP cells are engineered in such a way that the IL-2 promoter, which carries NFAT binding sites, is cloned upstream of the GFP gene. These cells have been used to study signaling via TCR and CAR. The different SARs were stably expressed in Jurkat NFAT-GFP cells by lentiviral mediated gene transfer, followed by selection with puromycin or blasticidin. No drug selection was used in case the construct lacked an antibiotic resistance gene. […] GFP expression was monitored by FACS analysis. […] The structure of different constructs can be determined based on their names. […] The sequence of the other constructs in the table can be similarly determined from their names and by referring to the different Tables of this disclosure that provide the names and SEQ ID NO of the different modules. Alternatively, the composition and modular architecture of the different SAR constructs can be determined from their sequences by bioinformatics tools, including using nucleic acid and amino acids homology searches. […]

B1: 21873 (protein)
chain: MALPVTALLLPLALLLHAARPDIQMTQSPSSLSASVGDRVTITCRASQDISSYLNWYQQKPGKAPKLLIYYTSRLHSGVPSRFSGSGSGTDFTLTISSLQPEDFATYYCQQGNTLPYTFGQGTKVEIKRLEDLKNVFPPEVAVFEPSEAEISHTQKATLVCLATGFYPDHVELSWWVNGKEVHSGVCTDPQPLKEQPALNDSRYCLSSRLRVSATFWQNPRNHFRCQVQFYGLSENDEWTQDRAKPVTQIVSAEAWGRADCGFTSESYQQGVLSATILYEILLGKATLYAVLVSALVLMAMVKRKDSRGRAKRSGSGATNFSLLKQAGDVEENPGPTSMDWIWRILFLVGAATGAHSFEVQLVESGGGLVQPGGSLRLSCAASGYTFSDYFMSWVRQAPGKGLEWVATISNGGTYTYYPDSVKGRFTISRDNSKNTLYLQMNSLRAEDTAVYYCARFDGYIFDYWGQGTLVTVSSTRIQNPDPAVYQLRDSKSSDKSVCLFTDFDSQTNVSQSKDSDVYITDKCVLDMRSMDFKSNSAVAWSNKSDFACANAFNNSIIPEDTFFPSPESSCDVKLVEKSFETDTNLNFQNLSVIGFRILLLKVAGFNLLMTLRLWSSRAKRSGSGVKQTLNFDLLKLAGDVESNPGPSRGHMTEYKPTVRLATRDDVPRAVRTLAAAFADYPATRHTVDPDRHIERVTELQELFLTRVGLDIGKVWVADDGAAVAVWTTPESVEAGAVFAEIGPRMAELSGSRLAAQQQMEGLLAPHRPKEPAWFLATVGVSPDHQGKGLGSAVVLPGVEAAERAGVPAFLETSAPRNLPFYERLGFTVTADVEVPEGPRTWCMTRKPGA
NFAT-GFP ASSAY: MCF-7 (MCF7 cells): did not show GFP induction

B2: 6821 (protein)
chain: MALPVTALLLPLALLLHAARPQLQLQESGPGLVKPSETLSLTCTVSGDSISSGDYYWGWIRQPPGKGLEWIGHIYYSGVTYYNPSLKSRVTISVDTSRNQFSLKLSSVTAADTAVYYCTREDSSNWRSRGQGTLVTVSSLEGQPKANPTVTLFPPSSEELQANKATLVCLISDFYPGAVTVAWKADGSPVKAGVETTKPSKQSNNKYAASSYLSLTPEQWKSHRSYSCQVTHEGSTVEKTVAPTECSPIKTDVITMDPKDNCSKDANDTLLLQLTNTSAYYMYLLLLLKSVVYFAIITCCLLRRTAFCCNGEKSRAKRSGSGATNFSLLKQAGDVEENPGPTSMDWIWRILFLVGAATGAHSFEVQLLESGGGLIQPGGSLRLSCAASGFTFSSHAMTWVRQAPGKGLEWVSAISGSGDYTHYADSVKGRFTISRDNSKNTVYLQMNSLRAEDSAVYYCAKDEDGGSLLGHRGQGTLVTVSSTRASTKGPSVFPLAPSSKSTSGGTAALGCLVKDYFPEPVTVSWNSGALTSGVHTFPAVLQSSGLYSLSSVVTVPSSSLGTQTYICNVNHKPSNTKVDKRVEPKSCEVKTDSTDHVKPKETENTKQPSKSCHKPKAIVHTEKVNMMSLTVLGLRMLFAKTVAVNFLLTAKLFFLRAKRSGSGVKQTLNFDLLKLAGDVESNPGPSRGHMTEYKPTVRLATRDDVPRAVRTLAAAFADYPATRHTVDPDRHIERVTELQELFLTRVGLDIGKVWVADDGAAVAVWTTPESVEAGAVFAEIGPRMAELSGSRLAAQQQMEGLLAPHRPKEPAWFLATVGVSPDHQGKGLGSAVVLPGVEAAERAGVPAFLETSAPRNLPFYERLGFTVTADVEVPEGPRTWCMTRKPGA
modifications: Synthetic Polynucloetide
GFP expression on co-culture with RAJI (RAJI cells): strongly induced GFP expression
GFP expression on co-culture with L363 (BCMA+) (L363 (BCMA+) cells): strongly induced GFP expression

B3: CD8SP-Dsg3-EC1-EC2-L693-IgCL-TCRb-wt2-opt-6MD-F-P2A-IgHSP-CD20-vHH2-HCD25-G4S-CD19-hu-mROO5-1-vH-IgG1-CH1-TCRa-wt2-opt-6MD-F-F2A-PAC (protein)
chain: MALPVTALLLPLALLLHAARPACEWVKFAKPCREGEDNSKRNPIAKITSDYQATQKITYRISGVGIDQPPFGIFVVDKNTGDINITAIVDREETPSFLITCRALNAQGLDVEKPLILTVKILDINDNPPVFSQQIFMGEIEENSASNSLVMILNATDADEPNHLNSKIAFKIVSQEPAGTPMFLLSRNTGEVRTLTNSLDREQASSYRLVVSGADKDGEGLSTQCECNIKVKDVNDNFPMFRDSLEGQPKANPTVTLFPPSSEELQANKATLVCLISDFYPGAVTVAWKADGSPVKAGVETTKPSKQSNNKYAASSYLSLTPEQWKSHRSYSCQVTHEGSTVEKTVAPTECSGRADCGFTSESYQQGVLSATILYEILLGKATLYAVLVSALVLMAMVKRKDSRGRAKRSGSGATNFSLLKQAGDVEENPGPTSATMDWIWRILFLVGAATGAHSGPQVQLQESGGGLAQAGGSLRLSCAASGRTFSMGWFRQAPGKEREFVAAITYSGGSPYYASSVRGRFTISRDNAKNTVYLQMNSLKPEDTAVYYCAANPTYGSDWNAENWGQGTQVTVSSGSGGGGSGGGGSGGGGSFEQVQLQQPGAELVKPGASVKMSCKASGYAFSSYWINWMKQKPGQGLEWIGQIYPGDGDTNYNGKFKGRATLTADTSSSTAYMQLSSLTSEDSAVYFCARSITTVVGCAMDYWGQGTSVTVSSTRASTKGPSVFPLAPSSKSTSGGTAALGCLVKDYFPEPVTVSWNSGALTSGVHTFPAVLQSSGLYSLSSVVTVPSSSLGTQTYICNVNHKPSNTKVDKRVEPKSCIPEDTFFPSPESSCDVKLVEKSFETDTNLNFQNLSVIGFRILLLKVAGFNLLMTLRLWSSRAKRSGSGVKQTLNFDLLKLAGDVESNPGPSRGHMTEYKPTVRLATRDDVPRAVRTLAAAFADYPATRHTVDPDRHIERVTELQELFLTRVGLDIGKVWVADDGAAVAVWTTPESVEAGAVFAEIGPRMAELSGSRLAAQQQMEGLLAPHRPKEPAWFLATVGVSPDHQGKGLGSAVVLPGVEAAERAGVPAFLETSAPRNLPFYERLGFTVTADVEVPEGPRTWCMTRKPGA
GFP induction [1]: increased GFP induction

Reference: patent US20230212319A1, “NOVEL ANTIGEN BINDING DOMAINS AND SYNTHETIC ANTIGEN RECEPTORS INCORPORATING THE SAME” (University of Southern California, priority 2020, published 2023)
